Measured values as given in patent US20250101087A1 (AbbVie / Abbott, published 2025).
Square brackets hold non-standard residues; d marks the D form. Primed or numbered codes have the meaning given here. Ends that are not written are not given here. pGlu = O=C1CC[C@@H](C(=O)O)N1; Biotin′ = not defined here

T1: pEF10 Pyr …-Biotin (human)
T1 peptide: [pGlu]FRHDSGGEVHHQK-{Biotin′}

T2: E3-16-EFRHDSGYEVHHQK-Biotin (human)
T2 construct: N-terminal glutamate is not pyroglutamated
T2 peptide: EFRHDSGYEVHHQK-{Biotin′}

T3: pEG6 Pyr …-Biotin (human)
T3 peptide: [pGlu]FRGDSGYEVHHQK-{Biotin′}

T4: pE3-16 Pyr-…-Biotin (human)
T4 peptide: [pGlu]FRHDSGYEVHHQK-{Biotin′}

T5: pEG7 Pyr …-Biotin (human)
T5 peptide: [pGlu]FRHGSGYEVHHQK-{Biotin′}

T6: pEG8 Pyr …-Biotin (human)
T6 peptide: [pGlu]FRHDGGYEVHHQK-{Biotin′}

T7: Mouse/Rat Aβ 1-40 (mouse/rat)
T7 construct: also called Aβ1-40 from rat and mouse
T7 peptide: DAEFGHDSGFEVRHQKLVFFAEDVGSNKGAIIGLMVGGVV


Legend:
[1] = molecular target: T8, amyloid plaques in human AD brain tissue (human, UniProt P05067 674-713); assay: immunostaining of unfixed human AD cortex sections, % area covered, 6 donors fitted together
T8 construct: Target presented in tissue sections; also called plaques in AD brain tissue

[2] = molecular target: T1, pEF10 Pyr …-Biotin; assay: direct binding ELISA, peptide coated 100 ng/well, average ± SD of three experiments
Procedure: (§1) Recombinant human Aβ biotinylated peptides were diluted in distilled water. Aβ peptides were diluted to a working concentration of 2 μg/mL, and 50 μL per well (100 ng/well) was added to 96-well half area high-binding ELISA plates. The plates were incubated overnight at 4° C. shaking at 100 rpm. Following coating, the plates were washed four times with 190 µL/well of 1×PBS using an automated plate washer. The plates were blocked with 190 µL/well of 2% BSA in DPBS and incubated for 1 hr. at RT. Reagents for ELISA were diluted in 0.25% BSA in DPBS.
(§2) After incubation for blocking, plates were washed four times with 190 μL/well of 1×PBS using automated plate washer. […] The plates were incubated for 30 min at RT. After four washes with PBS, 50 μL of TMB substrate was added into each well, and the plates were incubated at RT for about 5-10 min until color developed. The reaction was stopped by adding 50 μL per well of 2N sulfuric acid. Plates were read on a ClarioStar plate reader to obtain the absorbance at 450 nm (OD₄₅₀). […] Three independent experiments were performed.

[3] = molecular target: T2, E3-16-EFRHDSGYEVHHQK-Biotin; assay: as above
Procedure: as §1, §2

[4] = molecular target: T3, pEG6 Pyr …-Biotin; assay: as above
Procedure: as §1, §2

[5] = molecular target: T4, pE3-16 Pyr-…-Biotin; assay: as above
Procedure: as §1, §2

[6] = molecular target: T5, pEG7 Pyr …-Biotin; assay: as above
Procedure: as §1, §2

[7] = molecular target: T6, pEG8 Pyr …-Biotin; assay: as above
Procedure: as §1, §2

[8] = molecular target: human Aβ 1-40 fibrils (human); assay: direct binding ELISA
[9] = molecular target: T7, Mouse/Rat Aβ 1-40; assay: direct binding ELISA
[10] = molecular target: T8, amyloid plaques in human AD brain tissue; assay: immunostaining of unfixed human AD cortex sections with biotinylated antibody, % area covered, 6 donors fitted together
Procedure: Unfixed, 20 μm tissue sections were prepared from cerebral cortex of human cadaver AD brain using a cryostat and were thaw-mounted onto glass slides. The tissue sections were then incubated in Tris-buffered saline (TBS) containing 0.3% H₂O₂ for 10 minutes. After three washes with TBS, the sections were incubated in TBS containing 3% milk for 30 minutes. […] After three washes with TBS, the immunoreactivity was visualized by incubation in 1:400 ABC Elite for one hour followed by DAB for five minutes.
The images were acquired from all the samples using a slide scanner. […] Using the software, the gray matter was outlined, and the “threshold” was determined by an observer who was blind to the staining conditions. The threshold was set so that the DAB signal was recognized by the software and the background/non-specific staining was excluded from the analysis. Once an appropriate threshold was set, the software measured the percentage of the area of interest containing the positive signal.
A nonlinear regression analysis was carried out using Prism Version 9.1.0 (Graph Pad Software). A variable slope model, 9% area covered by IR=Bottom+(X^{HillSlope})*(Top−Bottom)/(X^{HillSlope}+EC₅₀^{HillSlope}), was used, where Bottom was fixed to zero, and Top was fixed to 10% as the typical total area covered by plaques. Data for all six donors were analyzed in a combined data fit.

T8 sequence (P05067 674-713): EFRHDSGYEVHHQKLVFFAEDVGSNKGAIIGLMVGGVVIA

| Binder | EC50 [1] [µg/mL] | EC50 [2] [nM] | EC50 [3] [nM] | EC50 [4] [nM] | EC50 [5] [nM] | EC50 [6] [nM] | EC50 [7] [nM] | binding result [8] | binding result [9] | EC50 [10] [µg/mL] |
| --- | --- | --- | --- | --- | --- | --- | --- | --- | --- | --- |
| Comparator Ab1 (antibody, human IgG1, kappa, V domains shown, Detected with anti-human IgG in the in vivo study; also called comparator antibody Ab1) VH: QVQLVQSGAEVKKPGSSVKVSCKASGYDFTRYYINWVRQAPGQGLEWMGWINPGSGNTKYNEKFKGRVTITADESTSTAYMELSSLRSEDTAVYYCAREGITVYWGQGTTVTVSS VL: DIVMTQTPLSLSVTPGQPASISCKSSQSLLYSRGKTYLNWLLQKPGQSPQLLIYAVSKLDSGVPDRFSGSGSGTDFTLKISRVEAEDVGVYYCVQGTHYPFTFGQGTKLEIKR | 12 | – | – | – | – | – | – | – | – | – |
| AC-264713, hu Aβ (AC-264713) [hu IgG1/K] (antibody, V domains shown, It is the only humanized antibody described) VH: EVQLQESGPGLVKPSQTLSLTCTFSGFSLSTSGMGVSWIRQPPGKGLEWLAHIYWDDDKRYNPYMKRRLTISKDTSKNQVSLKISSVTAADTAVYYCARRADDYDVGFAYWGQGTLVTVSS VL: DIQMTQSPSSVSASVGDRVTITCLASQTIGTWLAWYQQKPGKSPKLLIYAATSLADGVPSRFSGSGSGTDFTLTISSLQPEDFATYYCQQLYSSPFTFGQGTKLEIKR | – | 0.5 | 0.9 | 0.5 | 0.3 | 0.4 | 0.4 | no binding | no binding | 0.4 |
